Target: C-terminally strep-tagged wild-type GRK5 (human) (UniProt P34947)
Test: ITC

UniProt P34947, sequence (P34947 whole entry): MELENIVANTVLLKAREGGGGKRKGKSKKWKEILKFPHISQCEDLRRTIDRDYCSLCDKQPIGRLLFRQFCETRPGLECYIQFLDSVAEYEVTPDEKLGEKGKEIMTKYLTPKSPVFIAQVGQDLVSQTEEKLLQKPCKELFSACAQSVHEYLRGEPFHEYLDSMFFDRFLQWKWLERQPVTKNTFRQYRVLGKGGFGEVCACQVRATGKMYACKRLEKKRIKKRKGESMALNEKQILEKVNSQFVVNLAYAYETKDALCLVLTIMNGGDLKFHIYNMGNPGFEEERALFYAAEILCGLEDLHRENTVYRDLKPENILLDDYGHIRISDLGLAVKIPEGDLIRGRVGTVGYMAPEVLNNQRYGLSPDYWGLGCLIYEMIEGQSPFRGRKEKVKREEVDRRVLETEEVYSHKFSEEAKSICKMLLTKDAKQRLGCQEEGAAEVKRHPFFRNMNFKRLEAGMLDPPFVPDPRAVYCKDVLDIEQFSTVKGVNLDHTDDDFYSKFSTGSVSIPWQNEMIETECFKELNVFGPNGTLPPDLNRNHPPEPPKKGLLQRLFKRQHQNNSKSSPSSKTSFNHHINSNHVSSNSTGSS

Kd: 0.278 µM | dH: 4.3 kcal/mol
Substance: wild-type rat calmodulin (from UniProt P0DP29 1-149) (natural protein; other documents disagree on this pair)

Reference: publication PMC7855534
